# Data as given in article PMC2632919 (Nucleic Acids Research, 2008).
# T1: HmtSSB (human mitochondrial SSB) (Homo sapiens, UniProt Q04837 17-148)
# T1 sequence: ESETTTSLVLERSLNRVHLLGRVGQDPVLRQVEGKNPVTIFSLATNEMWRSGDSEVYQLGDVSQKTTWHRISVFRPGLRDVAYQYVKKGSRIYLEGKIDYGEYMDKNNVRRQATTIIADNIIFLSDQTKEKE
# B1: human mitochondrial single-stranded DNA-binding protein (HmtSSB) (natural protein, UniProt Q04837 17-148, looked up)
# chain: ESETTTSLVLERSLNRVHLLGRVGQDPVLRQVEGKNPVTIFSLATNEMWRSGDSEVYQLGDVSQKTTWHRISVFRPGLRDVAYQYVKKGSRIYLEGKIDYGEYMDKNNVRRQATTIIADNIIFLSDQTKEKE
# What was measured:
# [1] = target: the molecule itself; experiment: AUC
# [2] = target: T1, HmtSSB (human mitochondrial SSB); experiment: fluorescence anisotropy
# [3] = target: T1, HmtSSB (human mitochondrial SSB); experiment: fluorescence anisotropy; remark: listed apart in the source
Binder,stoichiometry N [1],apparent K (half saturation) [2] [nM],Kd [3] [nM]
B1,4,,
GTTTTCCCAGTCACGAC (ssDNA) [17-mer],,19.4 ± 4,19.2 ± 3.1
